Columns and labels:
REV-ERBβ LBD / NCoR RID = assay: Chemical cross-linking mass spectrometry (XL-MS); assay type: binding; settings: apo LBD and heme-bound LBD ± RID; DSSO
Description: (§1) Apo or heme-bound REV-ERBβ LBD and NCoR RID protein samples were cross-linked in Hepes gel filtration buffer [25 mM Hepes (pH 7.5) at room temperature, 50 mM NaCl, and 0.5 mM TCEP]. Non–cross-linked negative controls were generated using the same procedure without the addition of DSSO (Thermo Fisher Scientific). Samples included 4 μM apo LBD with or without 2 μM RID and 4 μM heme-bound LBD with or without 2 μM RID; complexes were preincubated 1 hour on ice. Reactions were initiated by spiking DSSO in DMSO at a final concentration of 600 μM in 50-μl solutions. The final molar ratio of cross-linker:protein was 100:1. The reactions were incubated at 25°C for 45 min before being quenched by the addition of tris (pH 8.0) to a final concentration of 50 mM. Each cross-link reaction was done in triplicate, and the reaction replicates were pooled after quenching. Samples (10 μl) were loaded for SDS-PAGE analysis with Coomassie staining to confirm the presence of cross-linked protein. The remaining cross-linked and non–cross-linked samples were then acetone-precipitated at −20°C overnight, and the protein was pelleted by centrifugation at 16,000 relative centrifugal force (rcf) for 5 min at 4°C. After decanting, the pellets were dried for 15 min at room temperature before being resuspended in 12.5 μl of resuspension buffer [50 mM ammonium bicarbonate and 8 M urea (pH 8.0)]. […]

REV-ERBβ LBD = assay: DSSO chemical cross-linking, SDS-PAGE; assay type: binding, human; settings: 4 μM LBD ± heme with 2 μM RID, 600 μM DSSO, 25°C, 45 min
Description: To further support this stoichiometry, we performed chemical cross-linking analysis of apo or heme-bound LBD ± RID using DSSO (disuccinimidyl sulfoxide), a cross-linker that cross-links lysine residues as well as serine, threonine, and tyrosine residues (fig. S9, A and B).
as §1, with “protein.” for “protein. The remaining cross-linked and non–cross-linked samples were then acetone-precipitated at −20°C overnight, and the protein was pelleted by centrifugation at 16,000 relative centrifugal force (rcf) for 5 min at 4°C. After decanting, the pellets were dried for 15 min at room temperature before being resuspended in 12.5 μl of resuspension buffer [50 mM ammonium bicarbonate and 8 M urea (pH 8.0)].”

B1: WT RID: mouse NCoR RID (residues 1942 to 2208 in the X50 splice variant) (protein, UniProt Q60974 1942-2208, looked up, fragment)
chain: TITAANFIDVIITRQIASDKDARERGSQSSDSSSSLSSHRYETASDAIEVISPASSPAPPQEKPQAYQPDMVKANQAENESTRQYEGPLHHYRSQQESPSPQQQPPLPPSSQSEGMGQVPRTHRLITLADHICQIITQDFARNQVPSQASTSTFQTSPSALSSTPVRTKTSSRYSPESQSQTVLHPRPGPRVSPENLVDKSRGSRPGKSPERSHIPSEPYEPISPPQGPAVHEKQDSMLLLSQRGVDPAEQRSDSRSPGSISYLPSF
modifications: X50 splice variant
Q: How did the “effect of RID on LBD-LBD cross-links” value (REV-ERBβ LBD / NCoR RID) turn out when B1 was run?
A: Its value is “enhanced LBD-LBD cross-links”.

Q: What about the “LBD:RID complexes by cross-linking SDS-PAGE” value (REV-ERBβ LBD) of the same molecule?
A: Its value is “two bands with molecular weights consistent with 1:1 and 2:1 LBD:RID complexes”.

Reference: paper PMC7840129, “Structural basis for heme-dependent NCoR binding to the transcriptional repressor REV-ERBβ” (Science Advances, 2021)
